From IntAct's records for PubMed 19536138
Each block holds one substance with its values, some of them ahead of it.

Assays:
clh1_rat Cltc [1] = target: clh1_rat Cltc (UniProt P11442)
clh1_rat Cltc [2] = target: clh1_rat Cltc (UniProt P11442); remark: listed apart in the source
clh1_rat Cltc [3] = target: clh1_rat Cltc (UniProt P11442); remark: listed apart in the source

clh1_rat Cltc, sequence (P11442 whole entry): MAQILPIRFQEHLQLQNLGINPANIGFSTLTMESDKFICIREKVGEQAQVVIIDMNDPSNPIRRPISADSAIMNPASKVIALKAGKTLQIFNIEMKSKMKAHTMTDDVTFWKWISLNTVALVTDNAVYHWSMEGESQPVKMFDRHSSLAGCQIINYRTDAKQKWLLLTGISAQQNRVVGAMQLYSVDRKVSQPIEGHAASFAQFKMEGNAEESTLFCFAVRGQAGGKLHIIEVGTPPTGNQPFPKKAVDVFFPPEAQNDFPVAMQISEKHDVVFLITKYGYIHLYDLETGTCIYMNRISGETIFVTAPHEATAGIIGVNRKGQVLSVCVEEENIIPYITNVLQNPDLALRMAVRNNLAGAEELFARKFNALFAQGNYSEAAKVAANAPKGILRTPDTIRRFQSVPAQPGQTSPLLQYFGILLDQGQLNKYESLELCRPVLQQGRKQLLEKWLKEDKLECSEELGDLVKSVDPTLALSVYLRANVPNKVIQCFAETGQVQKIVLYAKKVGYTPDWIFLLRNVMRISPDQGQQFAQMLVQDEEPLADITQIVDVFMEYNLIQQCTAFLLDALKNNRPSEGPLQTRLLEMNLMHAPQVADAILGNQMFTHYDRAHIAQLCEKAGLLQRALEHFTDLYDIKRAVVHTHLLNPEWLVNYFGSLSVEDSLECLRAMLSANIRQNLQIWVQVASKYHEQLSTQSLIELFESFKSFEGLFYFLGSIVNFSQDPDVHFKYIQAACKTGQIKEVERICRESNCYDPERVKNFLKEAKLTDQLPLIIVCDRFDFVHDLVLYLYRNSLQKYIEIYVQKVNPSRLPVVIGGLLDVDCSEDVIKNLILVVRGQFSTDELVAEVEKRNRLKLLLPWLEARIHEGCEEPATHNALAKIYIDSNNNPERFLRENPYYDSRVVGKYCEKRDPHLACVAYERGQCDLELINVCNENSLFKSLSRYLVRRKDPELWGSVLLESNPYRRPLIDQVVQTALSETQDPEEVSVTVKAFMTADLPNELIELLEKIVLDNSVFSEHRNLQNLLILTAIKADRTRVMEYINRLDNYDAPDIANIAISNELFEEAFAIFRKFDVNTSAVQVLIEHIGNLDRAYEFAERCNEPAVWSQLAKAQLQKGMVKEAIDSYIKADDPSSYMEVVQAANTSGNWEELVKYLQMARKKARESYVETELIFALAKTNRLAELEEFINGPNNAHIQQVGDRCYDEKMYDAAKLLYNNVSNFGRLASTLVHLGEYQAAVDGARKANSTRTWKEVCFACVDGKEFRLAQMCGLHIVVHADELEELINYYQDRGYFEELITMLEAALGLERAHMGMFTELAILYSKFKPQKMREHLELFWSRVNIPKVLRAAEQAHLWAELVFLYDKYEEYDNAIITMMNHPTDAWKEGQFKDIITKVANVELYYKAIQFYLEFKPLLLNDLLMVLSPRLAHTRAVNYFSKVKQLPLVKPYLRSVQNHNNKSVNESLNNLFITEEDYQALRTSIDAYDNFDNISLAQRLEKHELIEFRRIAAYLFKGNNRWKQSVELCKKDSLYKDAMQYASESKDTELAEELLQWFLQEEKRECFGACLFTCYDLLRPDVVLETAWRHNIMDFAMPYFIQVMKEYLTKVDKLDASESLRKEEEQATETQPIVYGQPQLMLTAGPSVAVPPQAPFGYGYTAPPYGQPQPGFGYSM
Inositol polyphosphate 5-phosphatase OCRL (Homo sapiens), Q01968 L73S, sequence (Q01968 whole entry L73S): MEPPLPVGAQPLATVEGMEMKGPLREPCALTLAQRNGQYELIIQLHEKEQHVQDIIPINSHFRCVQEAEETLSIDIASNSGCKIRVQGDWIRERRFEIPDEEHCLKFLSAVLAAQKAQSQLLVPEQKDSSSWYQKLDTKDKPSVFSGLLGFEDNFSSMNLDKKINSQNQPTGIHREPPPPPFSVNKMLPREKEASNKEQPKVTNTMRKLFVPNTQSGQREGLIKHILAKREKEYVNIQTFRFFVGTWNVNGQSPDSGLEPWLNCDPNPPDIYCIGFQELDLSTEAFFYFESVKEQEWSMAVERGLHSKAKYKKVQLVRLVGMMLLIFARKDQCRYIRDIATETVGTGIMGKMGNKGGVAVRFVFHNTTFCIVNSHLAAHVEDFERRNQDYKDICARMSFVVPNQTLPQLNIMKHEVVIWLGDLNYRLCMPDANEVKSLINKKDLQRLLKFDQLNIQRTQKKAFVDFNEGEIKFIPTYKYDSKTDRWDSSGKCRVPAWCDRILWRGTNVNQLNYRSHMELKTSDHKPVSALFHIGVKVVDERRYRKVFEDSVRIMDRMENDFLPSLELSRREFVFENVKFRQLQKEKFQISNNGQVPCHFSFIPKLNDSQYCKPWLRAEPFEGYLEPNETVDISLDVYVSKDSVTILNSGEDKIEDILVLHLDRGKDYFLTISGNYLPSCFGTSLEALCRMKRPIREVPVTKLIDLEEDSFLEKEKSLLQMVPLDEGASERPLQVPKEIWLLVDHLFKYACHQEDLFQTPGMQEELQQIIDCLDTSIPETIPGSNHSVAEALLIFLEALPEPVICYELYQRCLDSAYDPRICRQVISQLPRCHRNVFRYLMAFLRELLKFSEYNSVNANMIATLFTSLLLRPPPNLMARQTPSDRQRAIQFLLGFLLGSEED
Inositol polyphosphate 5-phosphatase OCRL (Homo sapiens), Q01968 I76Q, sequence (Q01968 whole entry I76Q): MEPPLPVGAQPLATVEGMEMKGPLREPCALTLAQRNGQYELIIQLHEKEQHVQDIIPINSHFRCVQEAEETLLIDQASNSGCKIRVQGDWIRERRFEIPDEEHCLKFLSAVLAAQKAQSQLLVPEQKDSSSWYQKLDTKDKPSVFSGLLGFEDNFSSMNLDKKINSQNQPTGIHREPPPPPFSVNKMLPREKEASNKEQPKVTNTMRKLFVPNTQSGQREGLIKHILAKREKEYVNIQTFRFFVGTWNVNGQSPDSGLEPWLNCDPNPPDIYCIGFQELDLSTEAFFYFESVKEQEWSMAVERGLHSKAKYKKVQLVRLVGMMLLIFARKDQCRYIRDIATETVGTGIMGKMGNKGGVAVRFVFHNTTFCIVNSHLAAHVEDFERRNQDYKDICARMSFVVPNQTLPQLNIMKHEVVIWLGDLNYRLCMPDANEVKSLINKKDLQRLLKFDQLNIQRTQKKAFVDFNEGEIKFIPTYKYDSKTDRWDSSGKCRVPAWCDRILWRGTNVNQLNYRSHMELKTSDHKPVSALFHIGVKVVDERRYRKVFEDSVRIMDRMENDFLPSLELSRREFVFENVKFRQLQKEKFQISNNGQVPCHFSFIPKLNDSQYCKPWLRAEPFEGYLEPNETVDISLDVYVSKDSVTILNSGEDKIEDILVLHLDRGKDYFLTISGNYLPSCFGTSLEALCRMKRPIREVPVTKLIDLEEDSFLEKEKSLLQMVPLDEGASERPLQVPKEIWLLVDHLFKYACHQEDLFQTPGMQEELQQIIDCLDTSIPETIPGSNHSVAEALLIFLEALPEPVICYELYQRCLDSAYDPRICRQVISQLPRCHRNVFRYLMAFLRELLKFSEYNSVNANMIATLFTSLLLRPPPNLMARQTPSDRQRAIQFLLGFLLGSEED
Inositol polyphosphate 5-phosphatase OCRL (Homo sapiens), Q01968 I74Q, sequence (Q01968 whole entry I74Q): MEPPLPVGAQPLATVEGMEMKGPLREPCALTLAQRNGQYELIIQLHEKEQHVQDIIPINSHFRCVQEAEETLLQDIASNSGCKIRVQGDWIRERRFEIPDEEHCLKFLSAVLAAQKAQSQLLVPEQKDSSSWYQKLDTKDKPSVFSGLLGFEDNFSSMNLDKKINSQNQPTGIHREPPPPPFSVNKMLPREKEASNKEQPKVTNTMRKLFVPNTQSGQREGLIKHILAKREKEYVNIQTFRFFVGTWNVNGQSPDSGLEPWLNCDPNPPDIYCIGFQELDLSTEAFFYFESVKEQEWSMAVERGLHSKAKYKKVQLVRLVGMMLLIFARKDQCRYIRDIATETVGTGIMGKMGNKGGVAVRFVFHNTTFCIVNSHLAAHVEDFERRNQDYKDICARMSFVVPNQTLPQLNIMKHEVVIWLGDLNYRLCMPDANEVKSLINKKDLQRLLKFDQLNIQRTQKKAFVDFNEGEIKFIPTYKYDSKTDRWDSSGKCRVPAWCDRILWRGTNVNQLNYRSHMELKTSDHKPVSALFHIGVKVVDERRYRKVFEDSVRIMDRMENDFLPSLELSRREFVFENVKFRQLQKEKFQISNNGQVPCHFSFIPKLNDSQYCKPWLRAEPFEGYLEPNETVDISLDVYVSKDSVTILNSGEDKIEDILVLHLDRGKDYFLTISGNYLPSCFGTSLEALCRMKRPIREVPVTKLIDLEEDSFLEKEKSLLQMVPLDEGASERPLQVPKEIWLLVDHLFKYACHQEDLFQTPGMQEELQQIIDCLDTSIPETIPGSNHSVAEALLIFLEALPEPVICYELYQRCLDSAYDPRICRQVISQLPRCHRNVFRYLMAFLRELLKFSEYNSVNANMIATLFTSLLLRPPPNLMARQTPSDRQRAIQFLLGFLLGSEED

effect of a mutation on the interaction (clh1_rat Cltc [1]): disrupting interaction
Substance: Inositol polyphosphate 5-phosphatase OCRL (Homo sapiens), Q01968 I74Q

effect of a mutation on the interaction (clh1_rat Cltc [2]): disrupting interaction
Substance: Inositol polyphosphate 5-phosphatase OCRL (Homo sapiens), Q01968 I76Q

effect of a mutation on the interaction (clh1_rat Cltc [3]): disrupting interaction
Substance: Inositol polyphosphate 5-phosphatase OCRL (Homo sapiens), Q01968 L73S
